From the nanobody polyreactivity screen of Harvey et al. (2022)

Assay: yeast display, Sf9 membrane polyspecificity reagent, FACS + sequencing; frameworks hold sequencing errors
Summary of the method: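 Using colony PCR, genes from sorted yeast display clones were amplified, then sequenced on MiSeq at 2 × 250 and filtered by CDR length. The clones had been stained with 10% biotinylated, detergent-solubilized Sf9 membrane reagent for 1 hour at 4 °C and sorted by FACS into low and high (top ~1%) gates on anti-HA and streptavidin fluorescence. Polyreactivity labels come from the gate of origin.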

| Sequence | polyreactivity (PSR sort gate) |
| --- | --- |
| QVQLVESGGGLVQAGGSLRLSCAASGSTFDPNAMGWYRQAPRKEREFVAAIRVSGDNTYYADSVKGRFTISRDNAKNTVYLLMNSLKPEDTAVYYCAATGTVLGSVDYWGQGTQVTVSS | low polyreactivity |
| QVQLVETGGGLVHAGGSLRLSCAASGSIFGLYAMGWYRQAPGKERELVAAITVSGGSTYYADSVKGRFTISRDNAKNTVYLQLNSLKPEDTAVYYCAARAGWPLYQYYYWGQGTQVTVSS | high polyreactivity |
| QVQLVESGGGLVQAGGSLRLSCAASGSTLVTYAMGWYRQAPGKERELVAAISWRGGSTYYADSVKGRFTISRDNAKNTVELQMNSLKPEDTAVYYCNKLRAYKESETYYYWGQGTQVTVSS | low polyreactivity |
| QVQLVESGGGLVQAGGSLRLSCAASGLTFYRYAMGWYRQAPGKERELVAAIRSNVVTTYYADSVKGRFTISRDNAKNTVYLQMNSLKPEDTAVYYCNAVSYSFPIHRVRPTWYDYWGQGTQVTVSS | high polyreactivity |
| QVQLVESGGGLDQAGGSLRLSCAASGFIFYRYAMGWYRQAPGKERELVAAINWSGGGTYYADSVKGRFTISRDNAKNTVYLQMNSLKPEDTAVYYCAAVRSFRGSYWYEYWGQGTKVTVSS | high polyreactivity |
| QVQLVESGGGLVQAGGSLRLSCAASGFILGWYAMGWYRQAPGKERELVADISASGTRTYYADSVKGRFTISRDNAKNTVYLQMNSLKPEDTAVYYCNVYTKFVYAYDYWGQGTQVTLSS | high polyreactivity |
| QVQLVESGGGLVQAGGSLRLSCAASGSTFVDYAMGWYRQAPGKERELVAAINERGGSTYYADSVKGRFTISRDNAKNTVYLQMNSLKPEDTAVYYCAARRRTRSSHSWYIRYGYWGQGTQVTVSS | low polyreactivity |
| QDLLVESGGGLLQAGGSLRLICAASGYTFTYYAMGWYRQAPGKERELVAAINYSGGRTDYADSVKGRFTLSRDNAKNTVYLQKNSMNPEDTAVYYCAAYTRNGDFDYWGQGTQVTVSS | high polyreactivity |
| QVQLVESGGGLVQAGGSLRLSCAASGSIFRGYTMGWYRQAPGKERELVAAISWSGGSTYYADSVKGRFTISRDNAKNTVYLQMNSLKPEDTAVYDCAAGDYYHRIFLWYDYWGQGTQVTVSS | low polyreactivity |
| QVQLVESGGGLVQAGGSLRLSCAASGITFWSYAMGWYRQAPGKERELVAAITWRGGSTYYADSVKGRFTISRDNAKNTVYLQMNSLKPEDTAVYYCNAVYRRDGYNYWGQGTQVTVSS | high polyreactivity |
| QVQLVESGGGLVQAGGSLRLSCAASGSTLYYYTMGWYRQAPGKERELVAAINWSGTITYYADSVKGRFTISRDNAKNTVYLQMNSLKPEDTAVYYCNAVYYRQGFDYWGQGTQVTVSS | high polyreactivity |
| QVQLVESGGGLVQAGGSLRLSCAASGSIIGGYAMGWYRQAPGKERELVAAITRSGGRTYYADSVKGRFTISRDNAKNTVYLQMNSLKPEDTAVYYCNADRRRRFGYWGQGTQVTVSS | high polyreactivity |
| QVQLVESGGGLVQAGGSLRLSCAASGSIFAGYAMGWYRQAPGNERELVAAISNRGSSTNYADSVKGRFTISRDNAKITVYLQMNSLKPEDTAVYYCAVGPIRKYDYWGQGTQVTVSS | high polyreactivity |
| QVQLVESGGGLVQAGGSLRLSCAASGRNFFRYAMGWYRQAPGKERELVAAISRSGGRTYYADSVKGRCTLSRDNAKNTVFLQMNSLNREDTAVYYCAVRYRQYSQTVASDYGYWGPGTQVTVSS | high polyreactivity |
| QVQLVESGGGLVQAGGSLRLSCAASGRIFVFNAMGWYRQAPGKERELVAAITWSGGTTYYADSVKGRFTISRDNAKNTVYLQMNSLKPEDTAVYFCNAYLNRRMGYWGQGTQVTVSS | high polyreactivity |
| QVQLVESGGGLVQAGGSLRLSCAASGRTFSSYAMGWYRQAPGKERELVARISSSGGRTSYADSVKGRFTISRDNAKNTVYLQMKSLKPEDTAVYYCAKTYHWLYDYWGQGTQVTVSS | high polyreactivity |
| QVQLVESGGGLVQAGGSLRLSCAASGSIFIVYAMGWYRQAPGKERELVAAISWSGGSTYYADSVKGRFTISRDNAKNTVYLQMNSLNPEDTAVYYCDAKYTLPFRDVKYYSWGQGTQVTVSS | high polyreactivity |
| QVQLVESGGGLVQAGGSLRLSCAASGSTLSIYAMGWYRQAPGKERELVAAISSIGGSTYYADSVKGRFTISRDNAKNTVYLQMNSLKPEDTAVYYCAAELYGGYYYWGQGTQVTVSS | high polyreactivity |
| QVQLVESGGGLVQAGGSLRLSCAASGFTILRYAMGWDRQAPGTERELVAAIDWSGGSTYYADSVKGRFTISRDNAKNTVYLQMNSLKPEDTAVYYCNARTINVPSRFNYWGQGTQVTVSS | low polyreactivity |
| QVQLVESGGGLVQAGGSHRLSCADSGRTFRTYAMGWYRQAPGKERELVAAITTSGSSTYYADSVKGRFTISRDNAKNTVYLQMNSLKPEDTAVYYCAAARSAIVPGYYSWGQGTQVTVSS | low polyreactivity |
| QVQLVESGGGLVQAGGSLRLSCAASGITFVGYAMGWYRQAPGKERELVAVINTSSSTYYADSVKGRFTISRDNAKNTVYLQLNSLKPEATAVYYCGVRGRYYYRRPQISYEYWGQGTQVTVSS | low polyreactivity |
| QVQLVESGGGIVQAGGSLRLSCAASGFTIWKYAMGLYRQAPGKERELVAAISVSGGRTNYADSVKGRFTISGDNAKNTVYLQMNSLKPEDTAVYYCIATPWRPYVGGEYWGQGTHVTVSS | high polyreactivity |

| Sequence | polyreactivity (PSR sort gate) |
| --- | --- |
| QVQLVESGGGLVQAGGSLRLSCAASGRTFWKYVMGWYRQAPGKEREVVAVISRPAGSTYYADSVKGRFTISRDNAKNTVYLQMNSLKPEETAVYYCNKPGGQSLGGYNYWVQGTQVTVSS | low polyreactivity |
| QVQLVESGGGLVQAGGSLRLSCAASGSTFGYYAMGWYRQAPGKERELVAVIRRGGSTNYADSVKGRFTISRDNAKNTVYLQMNSLKPEDTAVYYCAKSQRGTVYSYYYWGQGTQVTVSS | high polyreactivity |
| QVQLVESGGGLVQAGGSLRLSCAASGGTFLYYAMGWYRQAPGKERELVAAISSSTGSTNYADSVKGRFTISRDNAKNTVYLQMNSLKPEDTAVYYCAAAPHRHSWYYTRHPYFCMDYWGQGTQVTVSS | low polyreactivity |
| QVQLVESGGGLVQAGGSLRLSCAASGRTFYPNAMGWYRQAPGKERELVAAISLSGTRTNYADSVKGRFTISRDNAKNTVYLQMNSLKPEDTAVYYCAARYGNFDGRNYYWGQGTQVTVSS | high polyreactivity |
| QVHLVESGGGLDQAGGSLRLRCAASGRIFRHYAMGWYRQAPGTERELVAAYRWSCGSTYYADSEKGRFTISRDNAKNTVYLQMNSLKPEDNAVYYCATRDAVGHRPSGPYQLYDYWGQGTQVTVSS | low polyreactivity |
| QVQLVESGGGLVQAGGSLRLSCAASGSIFGLNAMGCYRQAPGKERELVAAISGGSTNYADSVKGRFTISRDNAKNTVYLQMNSLKPEDTAVYYCAARARRRYYYWGQGTQVTVSS | high polyreactivity |
| QVQLVESAGGLVQAGGSLRLICAASGSIVASYPKGWYRQAPGKERELVAAISDGGGRTYYADSVKGRFTISRDNAKNTVYLQMNSLKPEDTAVYYCAAYAVYTYRRARVYWGQGTQVTVSS | high polyreactivity |
| QVQLVESGGGLVQAGGSLRLSCAASGGTFDNYAMGWYRQAHGKERELVAAISWSGDNTYYADSVKGRFTISRDNAKNTVYLQMNSLKPEVTAVYYCAAVYFWYSYDEGYTAYDYWGQGTQVTVSS | low polyreactivity |
| QVQLVESGGGLVQAGGSLRLSCAASGIIFGTNAMGWYRQAPGKERELVAYITSGGSTYADSVKGRFTISRDNAKNTFYLQMHSLKPEDTEVYYCAAYVFWAFYEYDYWGQGTQVTVSS | low polyreactivity |
| QVQLVESGGGLVQAGGSLRLSCAASGITFWFYSKGWYRQSPGNERELVAAISRSGSTNYADSVKGRFTISRDNAKNTVYLQMNSLKPEDTAVYYCAASTYKYKLLYYQYDYWGQGTQVTVSS | high polyreactivity |
| QVQLEESGGGLVQAGGSLRLSCAASGSTFSDNAMGWYRQAPGKERELVAAISTGTSTYADSVKGRFTISRDNAKNTVYLQMNSLKPEDTAVYYCAADVGIRPLNYHPYNYWGQGTQVTVSS | low polyreactivity |
| QVQLVESGGGLVQAGGSLRLSCAASGFTFDVYTMGWYRQAPGKERELVASITYSGGDTYADSVKGRFTISRDNAKNTVYLQMNRLKPEDTAVYYCNAVVYYYLDEYWGQGTQVTVSS | high polyreactivity |
| QVKLVESGGGLVQAGGSLSLSCAASGRIFSYNAMGWYRQAPGKERELVAVISRSDTSTYYADSVKGRFTISRDNAKNTVYLEMNSLKPEDTAVYYCNADGPTYFRYSGYYYWGQGTQVTVSS | low polyreactivity |
| QVQLVESGGGLVQAGGSLRLSCAASGSIFGGYAMGWYRQAPGKERELVARIRVSGGRTYYADSVKGRFTISRDNAKNTVYLQMISLKPEDTAVYYCAVDRYWWLDGYDYWGQGTQVTVSS | high polyreactivity |
| QVQLVESGGGLVQAGGSLRLSCAASGSTFIVNALGGYRQAPGHEREFVAAIRWSGGSTYYADSVKGRFTISRDNAKNTVYFQMNSLKPDDTAVYYCNARSYQSARFRGGYWGQGTQVTVSS | high polyreactivity |
| QVQLVESGGGLVQAGGSLRLSCAASGRTFWWNAMAWYTQAPGKERELVAVISKRGGTTYYADSVKGRFTNSRDNAKNTVYLPMNSLKPEDTAVYVFAADQQSHYGYWGQGTQVTVSS | high polyreactivity |
| HVQLVESGGGLVQAGGSLRLSCAATGRIFWLYAMGWYRQAPGKERELVAAISSGGSTSYADSVKGRFTISRDNAKNTVYVQMNSLKPEDTAVYYCNATLLFPQLDGPESGEFDYWGQGTQRTVSS | low polyreactivity |
| QVQLVESGGGLVQAGGSLRLSCAASGFIFYSYGMGWYRQAPGKERELVASITSSGTRTYYADSVKGRFTISRDNAKHTVYLQMNSLKPEDTAVYYCAASRFYYGIAYYRYDYWGQGTHVTVSS | high polyreactivity |
| QVQLVESGGGLVQAGGSLRLSCAASGFTFPNNAMGWYRQAPGKERELVAAITWSGGSTYADSVKGRFTISRDNAKNTVYLQMNSLKPEDTAVYYCNTRGTYLSKTLPSAYDYWGQGTQVTVSS | low polyreactivity |
| QVQLQESGRRPGAAGGSPRMSCAASGNIFWVAVMGRYRQAPGKERELVASIGFGCTTYYADSVKCRFTISRDNAKNTVYLQMISLKPEDTAVYYCAAPLYDWGELDYWGQGTQVPVSS | low polyreactivity |
| QVQLVESGGGLVQAGGSLRISCAASGRTFRRYEMGWYREAPGKERELVASISSSAGSTYYADSVKGRFTISRDNAKNTVYFQMNSLKPEDTAVYYCAFVPTVYARSRYGYWGQGTQVTVSS | high polyreactivity |
